Results reported in PMC4655355, “Structural insights into YfiR sequestering by YfiB in Pseudomonas aeruginosa PAO1” (Scientific Reports, 2015).
Positions count from the first letter of the chain named. Names and notes keep the numbering of the source.

B1: YfiB(27–168) (domain or fragment)
chain: QTKPPQTGLSAEQIAVLQEQGFELRDEGWEFGMSSKVLFGNNLDRLNPDSRNTLTKIARALLAVDIDKVRLEGHTDNYGDEGYNQKLSERRAESVAAVFREAGMPAANIEVRGLGMSKPVADNKTRAGRSENRRVAIIVPAE
notes: signal peptide 1-25 and lipid acceptor Cys26 left out; cloned in pGEX-6p-1; GST removed with PPase on the resin; also called PA1119; longer YfiB construct; source: E. coli, purified (GST column, Hitrap Q, Superdex75)
B2: YfiB(59–168) (domain or fragment)
chain: MSSKVLFGNNLDRLNPDSRNTLTKIARALLAVDIDKVRLEGHTDNYGDEGYNQKLSERRAESVAAVFREAGMPAANIEVRGLGMSKPVADNKTRAGRSENRRVAIIVPAE
notes: cloned in pET-32a; tag removed with PPase on the resin; also called shorter YfiB construct; source: E. coli, purified (Ni-NTA, Hitrap S, Superdex75)
B3: YfiR(C71S) (domain or fragment)
chain: DDARTSIEQRSNAVSQVLLGIFSYVRWPKEPAVLQLSVVGPTEYADGLLRGMVQANGRRVHAERRAVDNPDLGTLCNVIYLGVVDERERQQVFRSLAGHPVLSISERGTECSVGSMFCLNVGGPRITFEANLDSIARSGVRVHPSVLKLARRQATP
notes: YfiR (PA1121) of Pseudomonas aeruginosa PAO1, residues 35-190, with C71S; the methods describe only the wild-type construct; also called C71S mutant of YfiR; not shown: Trx, N-terminal, cleaved
B4: YfiR (residues 35–190) (domain or fragment)
chain: B3 chain with S37C
notes: YfiR (PA1121) of Pseudomonas aeruginosa PAO1, residues 35-190; the N-terminal 34 residues (signal peptide) left out; cloned in pET-32a; purified on Ni-NTA, tag removed with PPase; also called PA1121; wild-type YfiR; source: E. coli, purified (Ni-NTA, ResourceS, Superdex75); not shown: Trx, N-terminal, cleaved

Tests used:
[1] = target: YfiB W55L (Pseudomonas aeruginosa PAO1) (UniProt Q9I4L6); assay: AUC; single purified proteins, 400 μL at 3 mg ml^-1 in 20 mM Tris-HCl, 200 mM NaCl; 42,000 rpm, 277 K, interference detection; SEDFIT
[2] = target: the molecule itself; assay: as above
YfiR (residues 35–190) = target: B4; assay: AUC; YfiB-YfiR complex at 10 mg ml^-1 in 20 mM Tris-HCl, 200 mM NaCl; 42,000 rpm, 277 K, interference detection; SEDFIT; details: both partners purified
YfiR(C71S) = target: B3; assay: crystal structure; YfiR(C71S)-YfiB(59–168) complex, 1.97 Å; proteins mixed 1:1; 0.1 M HEPES pH 7.5, 1.8 M ammonium sulfate, 293 K; details: both partners purified
[3] = target: the molecule itself; assay: as above
[4] = target: the molecule itself; assay: AUC; YfiB-YfiR complex at 10 mg ml^-1 in 20 mM Tris-HCl, 200 mM NaCl; 42,000 rpm, 277 K, interference detection; SEDFIT

“YfiB W55L (from UniProt Q9I4L6 27-168) (domain or fragment)” showed a stoichiometry N [1] of 2.

B1 was tested, and the “stoichiometry N” value [2] was 2.

For B2, the “stoichiometry N” value (YfiR (residues 35–190)) was 1 YfiB per YfiR (2:2) and the binding result (YfiR(C71S)) was “binds”.

B3: binds [3].

In the case of B4, the “stoichiometry N” value [4] is reported as 2.
